Data reported in paper PMC11580989.

Biological target: Rad52^ΔN* (Saccharomyces cerevisiae)
Assay: mass photometry

Q: With “Saccharomyces cerevisiae Rad51 (from UniProt P25454 1-400) (natural protein)” as the substance, how does the stoichiometry N read?
A: The stoichiometry N was 1.
